The target of data set [1] is T1, LJ0536 (cinnamoyl esterase) (Lactobacillus johnsonii, UniProt D3YEX6, S106A).
T1 construct: gene FEE39_08260; full length in p15TV-L, E. coli BL21(DE3); His6-tag removed by TEV for kinetics; crystals: tag uncleaved, protease-treated (subtilisin or V8), residues 1-245 modelled, four C-terminal residues lost
Kind of data set: X-ray crystallography, co-crystal. In kind it is binding. The conditions noted are these: 0.1 M Tris pH 8.5, active site.

Data set [2] deals with the molecule itself. Kind of data set: crystal structure; sitting drop, protein at 15 mg/mL with His6-tag uncleaved, pre-treated with subtilisin (apo) or V8 protease (S106A); S106A co-crystallised with ethyl ferulate.
Substrate in the data set “purified protein”: CCCC(=O)Oc1ccc([N+](=O)[O-])cc1
As to the kind of experiment: purified protein. The conditions noted are these: HEPES pH 7.80, 25 °C (typical assay; saturation conditions as in ref 14), pH 7.8. The class given is biochemical, Lactobacillus johnsonii.

Data set [3] deals with the molecule itself. As to the kind of experiment: SEC; gel filtration on Superose 12 10/300GL (FPLC), mobile phase 10 mM HEPES with 150 mM NaCl, calibrated with molecular weight standards.
The mark [4] stands for this setting: deletion made by ligation at a SmaI junction.

On to `COc1cc(/C=C/C(=O)O)ccc1O` [ferulic acid], for which the “X-ray crystallography, co-crystal” value in data set [1] (5 mM ligand, 1.75 Å) is “co-crystallized this mutant with ferulic acid, ethyl ferulate, or chlorogenic acid”.

On to `CCOC(=O)/C=C/c1ccc(O)c(OC)c1` [ethyl ferulate], for which, in data set [1] (Form I (5 mM ligand, 1.58 Å, 3PFB) and Form II (25 mM ligand, 1.82 Å, 3QM1)), the “X-ray crystallography, co-crystal” value is “The Ser106Ala-ethyl ferulate complex crystallized in two forms”.

B1: apo-LJ0536 (wild type), as crystallised after treatment with subtilisin (enzyme, Lactobacillus johnsonii N6.2, UniProt D3YEX6 1-245, looked up)
chain: MATITLERDGLQLVGTREEPFGEIYDMAIIFHGFTANRNTSLLREIANSLRDENIASVRFDFNGHGDSDGKFENMTVLNEIEDANAILNYVKTDPHVRNIYLVGHSQGGVVASMLAGLYPDLIKKVVLLAPAATLKGDALEGNTQGVTYNPDHIPDRLPFKDLTLGGFYLRIAQQLPIYEVSAQFTKPVCLIHGTDDTVVSPNASKKYDQIYQNSTLHLIEGADHCFSDSYQKNAVNLTTDFLQN
notes: LJ0536, serine cinnamoyl esterase, Lactobacillus johnsonii N6.2; residues 1-245 seen in the map, four C-terminal residues lost to the protease, plus five residues of the expression tag; Crystallised with the His6 tag uncleaved, but only five residues of the expression tag are seen after the protease treatment; also called apo WT LJ0536; not shown: His6, N-terminal, kept
As to B1, the binding result in data set [2] was “binds”.

B2: LJ0536 (cinnamoyl esterase) (Lactobacillus johnsonii; H225A) (protein)
chain: MATITLERDGLQLVGTREEPFGEIYDMAIIFHGFTANRNTSLLREIANSLRDENIASVRFDFNGHGDSDGKFENMTVLNEIEDANAILNYVKTDPHVRNIYLVGHSQGGVVASMLAGLYPDLIKKVVLLAPAATLKGDALEGNTQGVTYNPDHIPDRLPFKDLTLGGFYLRIAQQLPIYEVSAQFTKPVCLIHGTDDTVVSPNASKKYDQIYQNSTLHLIEGADACFSDSYQKNAVNLTTDFLQNNNAF
notes: full length in p15TV-L, E. coli BL21(DE3); His6-tag removed by TEV for kinetics; crystals: tag uncleaved, protease-treated (subtilisin or V8), residues 1-245 modelled, four C-terminal residues lost
Usually Km stands for the substrate concentration at which the rate is half of its maximum. The Vmax is the rate approached at saturating substrate. As a reminder, the kcat is the maximal rate divided by the concentration of active sites. In general, kcat/Km refers to the turnover number divided by the Michaelis constant. For B2, in the data set “purified protein”, the Km worked out at 190 ± 40 µM, the Vmax turned out to be 0.65 µmol/min/mg, the kcat is 0.3 s⁻¹ and the kcat/Km turned out to be 1570 M⁻¹ s⁻¹.

B3: LJ0536 (cinnamoyl esterase) (Lactobacillus johnsonii; S68A) (protein)
chain: MATITLERDGLQLVGTREEPFGEIYDMAIIFHGFTANRNTSLLREIANSLRDENIASVRFDFNGHGDADGKFENMTVLNEIEDANAILNYVKTDPHVRNIYLVGHSQGGVVASMLAGLYPDLIKKVVLLAPAATLKGDALEGNTQGVTYNPDHIPDRLPFKDLTLGGFYLRIAQQLPIYEVSAQFTKPVCLIHGTDDTVVSPNASKKYDQIYQNSTLHLIEGADHCFSDSYQKNAVNLTTDFLQNNNAF
notes: as for B2
Take B3: in the data set “purified protein”, the Km stood at 80 ± 20 µM, the maximal velocity (Vmax) came to 0.47 µmol/min/mg and the kcat was 0.22 s⁻¹.

B4: LJ0536, cinnamoyl esterase of Lactobacillus johnsonii N6.2 (wild type) (enzyme, UniProt D3YEX6 1-249, looked up)
chain: MATITLERDGLQLVGTREEPFGEIYDMAIIFHGFTANRNTSLLREIANSLRDENIASVRFDFNGHGDSDGKFENMTVLNEIEDANAILNYVKTDPHVRNIYLVGHSQGGVVASMLAGLYPDLIKKVVLLAPAATLKGDALEGNTQGVTYNPDHIPDRLPFKDLTLGGFYLRIAQQLPIYEVSAQFTKPVCLIHGTDDTVVSPNASKKYDQIYQNSTLHLIEGADHCFSDSYQKNAVNLTTDFLQNNNAF
notes: LJ0536, serine cinnamoyl esterase, Lactobacillus johnsonii N6.2; the crystallised fragment 1-245 is said to lack four C-terminal residues of the full-length protein; The protein as used for gel filtration; also called WT
On to B4, for which, in data set [3], the binding result was “binds”. In the data set “purified protein”, the Km was found to be 160 ± 20 µM, the Vmax is 3.34 µmol/min/mg, the kcat is 1.53 s⁻¹ and the kcat/Km came to 9590 M⁻¹ s⁻¹.

B5: LJ0536 (cinnamoyl esterase) (Lactobacillus johnsonii; D138A) (protein)
chain: MATITLERDGLQLVGTREEPFGEIYDMAIIFHGFTANRNTSLLREIANSLRDENIASVRFDFNGHGDSDGKFENMTVLNEIEDANAILNYVKTDPHVRNIYLVGHSQGGVVASMLAGLYPDLIKKVVLLAPAATLKGAALEGNTQGVTYNPDHIPDRLPFKDLTLGGFYLRIAQQLPIYEVSAQFTKPVCLIHGTDDTVVSPNASKKYDQIYQNSTLHLIEGADHCFSDSYQKNAVNLTTDFLQNNNAF
notes: as for B2
Regarding B5, in the data set “purified protein”, the Km came to 220 ± 30 µM, the maximum rate (Vmax) amounted to 1.23 µmol/min/mg, the kcat is 0.57 s⁻¹ and the kcat/Km was 2570 M⁻¹ s⁻¹.

B6: LJ0536 Ser106Ala mutant, as crystallised after treatment with V8 protease (enzyme, Lactobacillus johnsonii N6.2)
chain: MATITLERDGLQLVGTREEPFGEIYDMAIIFHGFTANRNTSLLREIANSLRDENIASVRFDFNGHGDSDGKFENMTVLNEIEDANAILNYVKTDPHVRNIYLVGHAQGGVVASMLAGLYPDLIKKVVLLAPAATLKGDALEGNTQGVTYNPDHIPDRLPFKDLTLGGFYLRIAQQLPIYEVSAQFTKPVCLIHGTDDTVVSPNASKKYDQIYQNSTLHLIEGADHCFSDSYQKNAVNLTTDFLQNNNAF
notes: made from the p15TV-L wild-type clone; also called LJ0536 S106A; S106A; not shown: His6, N-terminal, kept
With B6, the binding result in data set [2] is “binds”.

B7: LJ0536 (cinnamoyl esterase) (Lactobacillus johnsonii; H32A) (protein)
chain: MATITLERDGLQLVGTREEPFGEIYDMAIIFAGFTANRNTSLLREIANSLRDENIASVRFDFNGHGDSDGKFENMTVLNEIEDANAILNYVKTDPHVRNIYLVGHSQGGVVASMLAGLYPDLIKKVVLLAPAATLKGDALEGNTQGVTYNPDHIPDRLPFKDLTLGGFYLRIAQQLPIYEVSAQFTKPVCLIHGTDDTVVSPNASKKYDQIYQNSTLHLIEGADHCFSDSYQKNAVNLTTDFLQNNNAF
notes: as for B2
For B7, in “purified protein”, the Km was determined as 130 ± 80 µM, the Vmax turned out to be 0.09 µmol/min/mg, the kcat was 0.04 s⁻¹ and the kcat/Km turned out to be 318 M⁻¹ s⁻¹.

B8: LJ0536 (cinnamoyl esterase) (Lactobacillus johnsonii; Q145A) (protein)
chain: MATITLERDGLQLVGTREEPFGEIYDMAIIFHGFTANRNTSLLREIANSLRDENIASVRFDFNGHGDSDGKFENMTVLNEIEDANAILNYVKTDPHVRNIYLVGHSQGGVVASMLAGLYPDLIKKVVLLAPAATLKGDALEGNTAGVTYNPDHIPDRLPFKDLTLGGFYLRIAQQLPIYEVSAQFTKPVCLIHGTDDTVVSPNASKKYDQIYQNSTLHLIEGADHCFSDSYQKNAVNLTTDFLQNNNAF
notes: as for B2
In the case of B8, in “purified protein”, the Km stood at 290 ± 40 µM, the Vmax is 2.05 µmol/min/mg, the kcat came to 0.94 s⁻¹ and the catalytic efficiency (kcat/Km) was 3250 M⁻¹ s⁻¹.

B9: LJ0536 (cinnamoyl esterase) (Lactobacillus johnsonii; DEL147-173) (protein)
chain: MATITLERDGLQLVGTREEPFGEIYDMAIIFHGFTANRNTSLLREIANSLRDENIASVRFDFNGHGDSDGKFENMTVLNEIEDANAILNYVKTDPHVRNIYLVGHSQGGVVASMLAGLYPDLIKKVVLLAPAATLKGDALEGNTQGQQLPIYEVSAQFTKPVCLIHGTDDTVVSPNASKKYDQIYQNSTLHLIEGADHCFSDSYQKNAVNLTTDFLQNNNAF
notes: as for B2
On to B9, for which, in the data set “purified protein” (setting [4]), the Km was 650 ± 120 µM, the Vmax is 0.28 µmol/min/mg, the kcat worked out at 0.13 s⁻¹ and the kcat/Km turned out to be 198 M⁻¹ s⁻¹.

Source of the values: PMC3158066, “An Inserted α/β Subdomain Shapes the Catalytic Pocket of Lactobacillus johnsonii Cinnamoyl Esterase” (PLoS ONE, 2011).
